Laboratory results: the DeepSol protein solubility set

Assay: soluble on expression in E. coli; label from the status in PepcDB or PDB records

Question: Which “soluble on expression in E. coli” value does the source give for “MKVLTVVIPCYNSAEYMDRAIESLLIGDEELEILIVNDGSMDNTSIIADEYEKKYPNTIRVIHKENGGHGDAINTGLKHSKGVYFKVLDSDDWFDKASLKKVLEVLKNMIKDSKSLDMLISNYVYENFSINKSRSINYKGAMPKEKIFTWDSLGHLKSSQNILMHSVIYRTELLRECNLDLPKHTFYVDNIFVYKPLPYVKTMYYLDVDLYRYFIGREDQSVNEKVMIKRIDQQIKVTKILIDCYNPMLLNCKKLRKYMVKYLVMMMTVSTVLLIKDNTEQSLNKKRELWSYLHSKNRKLYFEVNKSFLGLLIQIKGFVGRKIILLGYSLSRKVFGFNLEHHHHHH” here?
Answer: Its value is “not soluble”.

Question: Which “soluble on expression in E. coli” value does the source give for “MKVLVTGATSGLGRNAAQWLLEAGHEVYAIGRDQLAGEELRKLGATFIPLDLTMTTMEVCQQWLKTCDVVWHCAAKSAPWGNPQDFHQTNVVVTHKLAQAAGREGVKRFIHISSPAVYFDFRHHHDLPETYRASRFSSHYASSKYAAEQVLHECIAHYPDTTYVILRPRGLFGPHDRVIVPRLLQQLSRDRNVLRLPGGGQAQLDLTFVLNVVHAMMLATDNDGLRSGAIYNITNQEPQRLVTMLDSLLNQQLHINYTLQPVPYSLLSVVAAGMELVASMTQKEPLLTRYSVGAVYFDMTLNSERAINELGYRPRYSMAEGIVLAGEWLSAQRSGQHG” here?
Answer: Its value is “not soluble”.

Question: Which “soluble on expression in E. coli” value does the source give for “MKVNKALTIAGSDSGGGAGIQADLKTFQELGVYGMTAITAITAQNTLGVQGVYPVSLEGITEQLNSIGTDLTPDAVKIGMLFSSEIIQIVAEYINKFGWNNIVLDPVMIAKGGASLLQQEAVQALKEYLLPVATVITPNVPEAEVLTGLEIHNIEDSKEAAKVLHELGAKYVLMKGGHAEYQGNEVIDLLFDGEKFIEFRSERIPSKQTHGSGCTFASAVTAGLAKGYSMEEAVQEAKRFISIAIEEPLHIGSGHGPTNHFAYKMNKAQV” here?
Answer: The value was “not soluble”.

Question: For “MKVVAFNGSPRKEGNTASLIKHVLAELDKEGIETEIVQIGGKSVHGCTACSKCFENRDRRCVIDNDIVNECIEKMLEADGIILASPTYFADLTPELKALIDRAGFVAKANSEMFRYKVGAAVVAVRRAGSIHVFDSINHFFTISQMIIPGSSYWNMGIGRAEGDVEKDDEGIRTMQILGQNMAWLLKKLNELEHHHHHH”, which “soluble on expression in E. coli” value is on record?
Answer: The value was “not soluble”.

Question: For “MKVVAVGGGTGLSTLLKGLKNIDSFEITAVVSVTDEGGSSGKLRKELNVPPPGDVRNNIVALAKDEDLLAKLMSYRFSEGSFKGHSLGNLIIAALTKIEGSFSEAIRILERVLAIKGRVLPVSEDHARLVARFEDGEEVIGETNIVRKGGKIVEVRLDRPIDALPEVLEAIERADIIIFGPGSLYTSIITNVLVNGVKDAIKKSKAKKIYVCNLMTQPGETTGYRVSDHVKELERYLEQSVDFVLVNTRKPSEEVLERYRKEGSDFVEIDAENIQNTILAEPFLVEIVDPSDGQRKIRHDSVKLADVIERISRW”, which “soluble on expression in E. coli” value is on record?
Answer: The value was “soluble”.

Question: With “MKVVVQIKDFDKVPQALRSVINLYNDIKDAEIEVVLHQSAIKALLKDSDTRSIIEDLIKKNILIVGCENSIRSQNLSHDQLIPGIKIVTSGVGEIVRKQSEGWIYLAL” as the sequence, how does the “soluble on expression in E. coli” value read?
Answer: The value was “soluble”.

Question: For “MKVYKDVFTNDEVCSDSYNQEDPFGIADFREIAFEVKSNKRIKGNDDYGIADNSEEAVDGMGADVEQVIDIVDSFQLTSTSLSKKEYSVYIKNYMQKILKYLEEKKPDRVDVFKTKAQPLIKHILTNFDDFEFYMGESLDMDAGLTYSYYKGEEVTPRFVYISDGLYEEKF”, which “soluble on expression in E. coli” value is on record?
Answer: Its value is “soluble”.

Question: Which “soluble on expression in E. coli” value does the source give for “MKVYYPGREWPEEYKRVLEKMKEIIDPVTGDNILDSGVVAGLEVKDRTLKVWLRFESQAEYNILGGAAMAYSKIVGDIMEKFALVMFDNVYVYDLRNNIVGVFEKKK” here?
Answer: Its value is “soluble”.

Question: With “MKYDWILFDADETLFHFDAFKGLQLMFSRKGVDFTEQDFAHYQTVNKPLWVDYQDGKVTADELKHKRFTEWAEKLNTTTADLNSAFLEAMADICS” as the sequence, how does the “soluble on expression in E. coli” value read?
Answer: The value was “not soluble”.

Question: With “MKYKIIVIDVFNTLLNNKYELTEENRNALLYIQKELGIRVVLTSGRTVAALKPLAEELNLREYSGYLIPYHGGQIVNCRSGKVIASHRMATSFVEVLDARARAEGVTLLAFGKDSIFSTDPHDPLAVKESDICGQPLVSKHPRSSEVIKCSFVGEAEKIAELEVVMRRDYGDKLNIFRSSETLLECLPSE” as the sequence, how does the “soluble on expression in E. coli” value read?
Answer: The value was “not soluble”.

Question: For “MKYLLPTAAAGLLLLAAQPAMAMASGGNSDSKTLNSLDKIKQNGVVRIGVFGDKPPFGYVDEKGNNQGYDIALAKRIAKELFGDENKVQFVLVEAANRVEFLKSNKVDIILANFTQTPQRAEQVDFCSPYMKVALGVAVPKDSNITSVEDLKDKTLLLNKGTTADAYFTQNYPNIKTLKYDQNTETFAALMDKRGDALSHDNTLLFAWVKDHPDFKMGIKELGNKDVIAPAVKKGDKELKEFIDNLIIKLGQEQFFHKAYDETLKAHFGDDVKADDVVIEGGKILEHHHHHH”, which “soluble on expression in E. coli” value is on record?
Answer: The value was “soluble”.

Question: For “MKYMIGVDIGTTSTKSVLYDENGTFIMKHQIGYDLHTPNVDVSEENPDELFDAVLMTIKYVMRESKVNKDDIKFVSFSAQMHSLIAMDQQHQRLTNNITWADNRAAKYATVINEVHDGNAIYQRTGTPIHPMSPLAKIFWMKHEWQDVFQRTAKFADIKTYIFYHLFDTYIIDYSMASATGMFNLETLDWDVEALELLGISKEMLPELVPTTYVMKGMKERYATLMGLNKDTPFVIGASDGVLSNLGVNSVGKGEVAVTIGTSGAIRTVIDKPRTDYKGRIFCYVLTEDHYVIGGPVNNGGVVLRWLRDELLASEVETAKRLGVDPYDVLTQIAKRVKPGADGLIFHPYLAGERAPLWNANARGSFFGLTLSHKKEHMIRAALEGVLYNLYTVYLALIEVMNETPKMIKATGGFAKSEVWRQMMSDIFDTELVVPESYESSCLGACVLGLKAVGDIEDFSIVSSMVGATNNHTPIEENVTVYQEIVSIFINLSRSLTENYEQIADFQRQHIAENKTQ”, which “soluble on expression in E. coli” value is on record?
Answer: Its value is “not soluble”.

Question: For “MKYSYVARQPILDREKRTIGYELLFRDGPKNTFPEVEPELATSRLLSDHFLSTHYNTLGNKLGFVNFPHQSLVNLVPTLFPKDSLVIEVLEDCEPTQELLDAIKHLHECGYRIALDDFVPTKAWKRFLPYVSMIKFDIRLVPIEKAAIFIQALSQFNIDFLAEKVETYEEFEQALDAGFNYFQGYFFSKPEMIQKKRLNPAFLTVIQLCKEIADKPIDFNEVERLFSIDVTLSYKLLTYVNSGYTLTTKIKSFRQALIYLGEERLRRFISLVAIASVQEDKPDSLYSLAIQRARMCEILLSQMKTKYDPGQAFLTGMFSLLGSLLDQPLSDVIEDIPVDEDIKLALTSRKGVLGYLLSMCIAYEQADWELAERYCSVLKLTETQLADAFNESTEWAQELLSQTP”, which “soluble on expression in E. coli” value is on record?
Answer: Its value is “not soluble”.

Question: Which “soluble on expression in E. coli” value does the source give for “MLAAYRGRVMTRIAVELSLLTFVRSSELRFARWDEFDFDKSLWRIPAKREEIKGVRYSYRGMKMKEEHIVPLSRQAMILLEQLKQISGDKELLFPGDHDATKVMSENTVNSALRAMGYDTKTEVCGHGFRTMARGALGESGLWSEDAIERQLSHSERNSVRAAYIHTSEHLDERRLMVQWWADYLDANKIKPLEHHHHHH” here?
Answer: The value was “not soluble”.

Question: Which “soluble on expression in E. coli” value does the source give for “MLDAFAKVVAQADARGEFLTNAQFDALSNLVKEGNKRLDAVNRITSNASTIVANAARALFAEQPQLIQPGGNAYTNRRMAACLRDMEIILRYVTYAILAGDSSVLDDRCLNGLRETYQALGTPGSSVAVAIQKMKDAAIAIANDPNGITPGDCSALMSEIAGYFDRAAAAVA” here?
Answer: The value was “soluble”.

Question: Which “soluble on expression in E. coli” value does the source give for “MLDFEKPLFEIRNKIDSLKESQEKNEVDLQDEIDMLEASLKRETTKVYTNLKPWDRVQIARLPERPTTLDYIPYIFDSFIELHGDRSFRDDPAMIGGIGYLDGKSVTVIGQQRGKDTKDNIYRNFGMAHPEGYRKALRLMKQAEKFNR” here?
Answer: Its value is “not soluble”.

Question: With “MLDKNVLNEIGSKVNEILASSPARDVEKNMRAMLTGAFARLDLVTREEFDVQQEVIKRTRIKLAELEEKVRKLEQQLQQPAEVVSSNETGDA” as the sequence, how does the “soluble on expression in E. coli” value read?
Answer: Its value is “not soluble”.

Question: With “MLDVPHGKFGFTKGCIIAVILLSLSRTLNRGQLNLERFEFWQPTSQLLALDVCLRDAFALEHHHHHH” as the sequence, how does the “soluble on expression in E. coli” value read?
Answer: Its value is “not soluble”.

Question: For “MLEEYEKKRDFNKTSEPPARGEEKNSDKPVFVVQRHDATNLHYDFRLEMDGVLKSWAVPKEPPKSPGTRRLAIETEDHPLGYADFEGEIPEGQYGAGRVEIWDRGTFELLKRNEKEIIITLHGEELEGDYVLIKTKYGKEDKGWLFFKKKTGLEHHHHHH”, which “soluble on expression in E. coli” value is on record?
Answer: The value was “soluble”.

Question: For “MLEFEQGFNHLATLKVIGVGGGGNNAVNRMIDHGMNNVEFIAINTDGQALNLSKAESKIQIGEKLTRGLGAGANPEIGKKAAEESREQIEDAIQGADMVFVTSGMGGGTGTGAAPVVAKIAKEMGALTVGVVTRPFSFEGRKRQTQAAAGVEAMKAAVDTLIVIPNDRLLDIVDKSTPMMEAFKEADNVLRQGVQGISDLIAVSGEVNLDFADVKTIMSNQGSALMGIGVSSGENRAVEAAKKAISSPLLETSIVGAQGVLMNITGGESLSLFEAQEAADIVQDAADEDVNMIFGTVINPELQDEIVVTVIATGFDDKPTSHGRKSGSTGFGTSVNTSSNATSKDESFTSNSSNAQATDSVSERTHTTKEDDIPSFIRNREERRSRRTRR”, which “soluble on expression in E. coli” value is on record?
Answer: The value was “not soluble”.

Question: Which “soluble on expression in E. coli” value does the source give for “MLEFQTPELLRMPLQELCLHTKLLAPVNCPIADFLMKAPEPPPALIVRNAVQMLKTIDAMDTWEDLTELGYHLADLPVEPHLGKMVLCAVVLKCLDPILTVACTLAYRDPFVLPTQASQKRAAMLCRKRFTAGAFSDHMALLRAFQAWQKARSDGWERAFCEKNFLSQATMEIIIGMRTQLLGQLRASGFVRARGGGDIRDVNTNSENWAVVKAALVAGMYPNLVHVDRENLVSTGPKEKKVRFHPASVLSQPQYKKIPPANGQAAAIKALPTDWLIYDEMTRAHRIANIRCCSAVTPVTILVFCGPARLASNALQEPSSFRVDGIPNDSSDSEMEDKTTANLAALKLDEWLHFTLEPEAASLLLQLRQKWHSLFLRRMRAPSKPWSQVDEATIRAIIAVLSTEEQSAGLQQPSGIGQRPRPMSSEELPLASSWRSNNSRKSSADTEFSDECTTAERVLMKSPSPALHPPRKYKDRGILHPKRGTEDRSDQSSLKSTDSSSYPSPCASPSPPSSGKGSKSPSPRPNMPVRYFIMKSSNLRNLEISQQKGIWSTTPSNERKLNRAFWESSIVYLVFSVQGSGHFQGFSRMSSEIGREKSQDWGSAGLGGVFKVEWIRKESLPFQFAHHLLNPWNDNKKVQISRDGQELEPQVGEQLLQLWERLPLGEKNTTD” here?
Answer: The value was “soluble”.

Question: For “MLEPSHNDELPPIPGKRYFTIGEVSELCAVKPHVLRYWEQEFPQLNPVKRRGNRRYYQRLDVLMIRQIRGLLYDQGFTIGGARLRLTAGEPKDDTQQYKQMIREMIAELEDVLVMLKA”, which “soluble on expression in E. coli” value is on record?
Answer: The value was “not soluble”.

Question: With “MLFTKASEYALLSLIYISQKETPQDVDSLALELDIPKSFLAKILQTLAKDGLLKSFKGAKGGFVLIKEPSQYTIKEIVNSAEKKDISVFECSGGTCPNNKEENCTLMPMLVNLQNKVDEFLDSITLEDIMKNNGKK” as the sequence, how does the “soluble on expression in E. coli” value read?
Answer: Its value is “soluble”.

Question: With “MLGAIIGDIVGSVYEWNNIKTKDFPLFRKDCFFTDDTVMTCAVAEAIMNGGQKDDFIDAMKKYGRMYPNADYGARFNAWLNSDNREPYNSFGNGSAMRISPCAWIMDCGFYAKTGIWPSSRGLTSLSAEVTHNHPEGVKGAMATADAIFLCRFYFGGYCREYEQSINDNPTECKRRIKDYIEKEYDYNLSQTLDEIRPNYRFNETCQETVPQAIIAFLESRDFEDAIRNAISLGGDSDTLAAITCSIAEAAYGIPDWIKDKAYSYLDEPLKDVVRRWENRIKAYLEHHHHHH” as the sequence, how does the “soluble on expression in E. coli” value read?
Answer: The value was “soluble”.

Question: For “MLGENHALIYEFPDFADHIRHLKKNNTIFATMAQRYHELDHKIRALELTKVPTDDEHFVALKLERLHLKDKLYQYLVHDAI”, which “soluble on expression in E. coli” value is on record?
Answer: Its value is “soluble”.
